Values of other authors, collected in article PMC5776729.

What was measured:
[1] = target: laminin 411 (Homo sapiens) (UniProt Q16363)
[2] = target: laminin 511 (Homo sapiens) (UniProt O15230)
[3] = target: laminin 111 (Mus musculus) (UniProt P19137)
[4] = target: laminin 111 (Homo sapiens) (UniProt P25391)

Chain of UniProt Q16363 (Q16363 25-1823, chain 1 of 3): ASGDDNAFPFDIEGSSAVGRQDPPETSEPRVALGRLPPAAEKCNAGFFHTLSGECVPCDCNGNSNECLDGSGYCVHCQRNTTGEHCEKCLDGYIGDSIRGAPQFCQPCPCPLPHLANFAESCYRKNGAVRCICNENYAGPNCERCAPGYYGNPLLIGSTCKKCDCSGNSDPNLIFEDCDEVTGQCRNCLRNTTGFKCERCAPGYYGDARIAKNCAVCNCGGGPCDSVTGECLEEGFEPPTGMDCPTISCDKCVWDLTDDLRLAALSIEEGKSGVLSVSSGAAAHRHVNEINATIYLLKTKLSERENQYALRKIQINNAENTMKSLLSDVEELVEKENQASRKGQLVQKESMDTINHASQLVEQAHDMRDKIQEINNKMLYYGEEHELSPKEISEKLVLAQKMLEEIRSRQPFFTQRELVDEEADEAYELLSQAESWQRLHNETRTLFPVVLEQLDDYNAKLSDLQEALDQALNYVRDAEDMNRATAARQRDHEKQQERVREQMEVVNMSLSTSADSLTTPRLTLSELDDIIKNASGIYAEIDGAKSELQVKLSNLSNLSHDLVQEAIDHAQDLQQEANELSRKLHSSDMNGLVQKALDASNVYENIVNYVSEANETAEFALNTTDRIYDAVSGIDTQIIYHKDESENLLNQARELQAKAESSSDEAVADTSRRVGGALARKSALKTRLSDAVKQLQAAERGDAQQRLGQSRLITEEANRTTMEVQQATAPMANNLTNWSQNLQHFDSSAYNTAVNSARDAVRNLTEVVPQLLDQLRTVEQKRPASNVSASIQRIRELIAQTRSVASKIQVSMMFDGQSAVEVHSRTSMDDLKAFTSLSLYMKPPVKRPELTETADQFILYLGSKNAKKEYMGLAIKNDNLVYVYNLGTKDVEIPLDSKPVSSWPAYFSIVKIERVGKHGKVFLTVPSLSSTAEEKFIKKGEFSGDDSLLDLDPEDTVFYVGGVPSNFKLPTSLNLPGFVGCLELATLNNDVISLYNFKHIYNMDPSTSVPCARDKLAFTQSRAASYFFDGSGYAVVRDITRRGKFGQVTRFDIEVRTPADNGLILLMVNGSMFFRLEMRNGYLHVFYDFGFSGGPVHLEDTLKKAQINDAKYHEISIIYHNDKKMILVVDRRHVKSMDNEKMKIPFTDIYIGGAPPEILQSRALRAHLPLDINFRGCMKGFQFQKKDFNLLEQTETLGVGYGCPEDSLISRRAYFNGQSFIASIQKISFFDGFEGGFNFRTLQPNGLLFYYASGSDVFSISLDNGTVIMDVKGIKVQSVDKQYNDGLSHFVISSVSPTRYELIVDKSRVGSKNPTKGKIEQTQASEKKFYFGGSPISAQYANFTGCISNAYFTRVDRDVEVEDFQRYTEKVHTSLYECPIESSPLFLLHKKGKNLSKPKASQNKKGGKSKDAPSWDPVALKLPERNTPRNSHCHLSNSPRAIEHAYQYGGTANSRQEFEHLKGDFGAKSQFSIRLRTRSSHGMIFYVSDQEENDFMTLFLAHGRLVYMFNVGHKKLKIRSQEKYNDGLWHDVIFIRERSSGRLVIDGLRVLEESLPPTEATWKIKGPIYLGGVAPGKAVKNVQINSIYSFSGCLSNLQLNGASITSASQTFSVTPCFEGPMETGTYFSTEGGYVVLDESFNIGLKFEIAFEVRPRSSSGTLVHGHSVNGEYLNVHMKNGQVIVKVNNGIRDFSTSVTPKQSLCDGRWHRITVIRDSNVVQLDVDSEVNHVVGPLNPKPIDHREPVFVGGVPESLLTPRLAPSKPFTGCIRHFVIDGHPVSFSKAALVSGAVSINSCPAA
Chain of UniProt Q16363 (P07942 22-1786, chain 2 of 3, further chain): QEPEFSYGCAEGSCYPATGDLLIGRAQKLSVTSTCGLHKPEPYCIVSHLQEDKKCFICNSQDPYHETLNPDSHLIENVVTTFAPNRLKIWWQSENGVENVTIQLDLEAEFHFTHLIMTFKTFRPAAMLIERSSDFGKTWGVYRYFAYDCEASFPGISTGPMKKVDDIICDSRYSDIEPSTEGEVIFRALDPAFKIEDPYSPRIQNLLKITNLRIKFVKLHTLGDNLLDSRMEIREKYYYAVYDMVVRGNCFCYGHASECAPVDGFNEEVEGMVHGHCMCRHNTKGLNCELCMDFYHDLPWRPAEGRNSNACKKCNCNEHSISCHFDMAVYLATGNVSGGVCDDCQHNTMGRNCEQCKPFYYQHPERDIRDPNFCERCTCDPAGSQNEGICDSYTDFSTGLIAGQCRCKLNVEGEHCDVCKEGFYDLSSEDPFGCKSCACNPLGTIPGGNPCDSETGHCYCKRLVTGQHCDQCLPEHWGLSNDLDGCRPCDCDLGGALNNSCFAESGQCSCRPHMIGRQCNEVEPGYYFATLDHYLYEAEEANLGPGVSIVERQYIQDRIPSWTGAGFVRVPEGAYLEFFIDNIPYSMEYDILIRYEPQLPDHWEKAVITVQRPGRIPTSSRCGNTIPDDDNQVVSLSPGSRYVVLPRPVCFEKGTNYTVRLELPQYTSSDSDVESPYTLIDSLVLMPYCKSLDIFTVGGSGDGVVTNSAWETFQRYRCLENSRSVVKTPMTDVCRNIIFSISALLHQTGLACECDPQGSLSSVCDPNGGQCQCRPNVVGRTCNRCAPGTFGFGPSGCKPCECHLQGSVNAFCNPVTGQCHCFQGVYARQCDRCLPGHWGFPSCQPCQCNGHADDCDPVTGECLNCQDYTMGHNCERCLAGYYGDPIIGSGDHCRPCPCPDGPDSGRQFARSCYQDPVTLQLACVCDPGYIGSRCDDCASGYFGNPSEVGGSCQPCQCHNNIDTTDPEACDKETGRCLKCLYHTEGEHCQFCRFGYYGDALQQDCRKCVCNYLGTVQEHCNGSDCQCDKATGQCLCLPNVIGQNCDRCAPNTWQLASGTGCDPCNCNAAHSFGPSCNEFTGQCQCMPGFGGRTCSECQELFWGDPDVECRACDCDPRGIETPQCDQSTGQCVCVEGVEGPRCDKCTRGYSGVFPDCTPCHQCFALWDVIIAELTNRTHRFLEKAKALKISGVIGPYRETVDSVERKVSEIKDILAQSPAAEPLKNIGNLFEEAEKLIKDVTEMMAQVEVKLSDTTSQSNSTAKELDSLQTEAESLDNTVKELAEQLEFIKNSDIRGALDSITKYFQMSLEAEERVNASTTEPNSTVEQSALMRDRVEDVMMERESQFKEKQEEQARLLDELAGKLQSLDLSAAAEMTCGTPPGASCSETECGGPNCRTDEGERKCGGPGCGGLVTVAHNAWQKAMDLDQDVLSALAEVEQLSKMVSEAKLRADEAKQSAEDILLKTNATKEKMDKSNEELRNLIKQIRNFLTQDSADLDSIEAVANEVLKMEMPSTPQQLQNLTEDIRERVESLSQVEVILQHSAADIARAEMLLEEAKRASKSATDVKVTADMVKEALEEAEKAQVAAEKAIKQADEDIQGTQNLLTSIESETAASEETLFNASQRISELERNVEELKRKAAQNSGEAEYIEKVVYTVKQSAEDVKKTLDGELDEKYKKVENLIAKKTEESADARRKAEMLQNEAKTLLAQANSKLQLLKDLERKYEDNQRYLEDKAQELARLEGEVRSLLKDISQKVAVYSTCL
Chain of UniProt Q16363 (P11047 34-1609, chain 3 of 3, further chain): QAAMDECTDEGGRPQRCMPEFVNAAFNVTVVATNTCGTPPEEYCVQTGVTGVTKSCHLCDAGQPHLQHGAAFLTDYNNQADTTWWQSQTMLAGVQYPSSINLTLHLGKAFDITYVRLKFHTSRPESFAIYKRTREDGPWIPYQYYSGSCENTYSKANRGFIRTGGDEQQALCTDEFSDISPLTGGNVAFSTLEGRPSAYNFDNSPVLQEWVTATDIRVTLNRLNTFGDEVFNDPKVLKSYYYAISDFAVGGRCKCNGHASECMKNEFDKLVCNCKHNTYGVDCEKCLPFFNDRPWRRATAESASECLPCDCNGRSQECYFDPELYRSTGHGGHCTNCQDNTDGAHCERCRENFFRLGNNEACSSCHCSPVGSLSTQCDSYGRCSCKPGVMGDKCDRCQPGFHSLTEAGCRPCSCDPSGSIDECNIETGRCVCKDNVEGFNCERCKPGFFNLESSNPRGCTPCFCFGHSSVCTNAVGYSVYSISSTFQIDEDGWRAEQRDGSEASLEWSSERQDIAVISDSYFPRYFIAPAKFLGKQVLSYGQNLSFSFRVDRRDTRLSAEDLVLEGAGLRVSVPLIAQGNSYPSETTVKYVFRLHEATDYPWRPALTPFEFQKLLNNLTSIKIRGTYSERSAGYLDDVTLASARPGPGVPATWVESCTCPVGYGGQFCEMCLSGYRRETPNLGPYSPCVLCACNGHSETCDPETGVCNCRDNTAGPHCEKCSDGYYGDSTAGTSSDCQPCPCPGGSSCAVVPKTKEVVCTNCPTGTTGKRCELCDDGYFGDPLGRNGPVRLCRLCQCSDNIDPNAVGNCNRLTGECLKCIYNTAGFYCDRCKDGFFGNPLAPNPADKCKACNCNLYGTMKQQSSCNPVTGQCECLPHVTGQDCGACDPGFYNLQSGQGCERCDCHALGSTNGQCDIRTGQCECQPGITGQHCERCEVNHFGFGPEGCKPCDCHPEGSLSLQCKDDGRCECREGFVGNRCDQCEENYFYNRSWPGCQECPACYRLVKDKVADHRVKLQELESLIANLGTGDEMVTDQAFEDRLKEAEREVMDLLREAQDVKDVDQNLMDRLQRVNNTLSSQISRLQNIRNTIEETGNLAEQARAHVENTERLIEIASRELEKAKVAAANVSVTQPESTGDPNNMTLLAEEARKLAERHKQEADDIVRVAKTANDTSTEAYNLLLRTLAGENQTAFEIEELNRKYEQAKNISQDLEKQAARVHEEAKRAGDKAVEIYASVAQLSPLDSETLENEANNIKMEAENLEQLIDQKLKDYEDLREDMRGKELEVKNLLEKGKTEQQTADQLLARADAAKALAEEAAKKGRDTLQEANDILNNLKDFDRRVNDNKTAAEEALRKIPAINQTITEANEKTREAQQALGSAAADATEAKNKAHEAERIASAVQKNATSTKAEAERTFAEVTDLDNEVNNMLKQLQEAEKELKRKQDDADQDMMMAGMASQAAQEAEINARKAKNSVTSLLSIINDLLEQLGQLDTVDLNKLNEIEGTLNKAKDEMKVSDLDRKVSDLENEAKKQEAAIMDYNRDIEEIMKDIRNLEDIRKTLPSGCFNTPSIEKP

## Factor XI (from UniProt P03951)
[1]
  Kd: 9.2 nM
[2]
  Kd: 8.3 nM
[3]
  Kd: 18.8 nM
[4]
  Kd: 11.1 nM
